For assay [1], the target named is T1, mouse transferrin receptor (TfR1) (mouse, UniProt Q62351 1-763, limits assumed).
T1 construct: form and assay not described; also called mouse TfR
Put plainly: not described.

Assay [2] has as its target T2, human transferrin receptor 2 (TfR2) overexpressed on BaF3 cells (human, UniProt Q9UP52 1-801).
T2 construct: whole, on cells
T2 sequence (looked up): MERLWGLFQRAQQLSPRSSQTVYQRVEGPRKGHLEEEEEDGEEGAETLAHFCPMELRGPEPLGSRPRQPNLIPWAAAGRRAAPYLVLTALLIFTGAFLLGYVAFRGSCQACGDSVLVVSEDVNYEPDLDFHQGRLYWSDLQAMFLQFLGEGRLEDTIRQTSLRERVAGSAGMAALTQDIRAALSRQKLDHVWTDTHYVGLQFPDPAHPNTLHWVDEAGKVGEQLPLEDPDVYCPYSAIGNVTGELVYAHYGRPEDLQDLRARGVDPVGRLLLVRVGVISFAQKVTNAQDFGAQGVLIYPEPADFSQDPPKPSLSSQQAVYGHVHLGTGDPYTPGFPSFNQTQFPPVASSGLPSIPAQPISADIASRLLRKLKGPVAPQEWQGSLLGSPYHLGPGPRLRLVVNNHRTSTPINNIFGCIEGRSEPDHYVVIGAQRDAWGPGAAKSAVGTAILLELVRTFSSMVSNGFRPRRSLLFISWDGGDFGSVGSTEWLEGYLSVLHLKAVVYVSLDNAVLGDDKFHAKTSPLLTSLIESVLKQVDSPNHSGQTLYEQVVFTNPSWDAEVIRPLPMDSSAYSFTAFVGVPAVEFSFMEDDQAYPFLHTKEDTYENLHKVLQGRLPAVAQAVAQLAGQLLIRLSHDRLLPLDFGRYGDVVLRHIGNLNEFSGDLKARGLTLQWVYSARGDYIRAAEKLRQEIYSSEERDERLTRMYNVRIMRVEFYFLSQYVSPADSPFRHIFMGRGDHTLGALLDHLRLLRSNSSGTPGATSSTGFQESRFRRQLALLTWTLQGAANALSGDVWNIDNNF
Put plainly: FACS on BaF3 cells overexpressing human TfR2.

Assay [3] addresses T3, cynomolgus monkey transferrin receptor 1 (TfR1), full length, expressed on cells (cynomolgus monkey, UniProt Q5RDH6 1-760 (Pongo abelii entry)).
T3 construct: also called cyno TfR1; cyTfR
The experiment in a line: FACS on Ba/F3 cells, Fab supernatant.

The target of assay [4] is T4, human transferrin receptor 1 (TfR1), full length, expressed on cells (human, UniProt P02786 1-760).
T4 construct: also called human TfR1; huTfR
Put plainly: FACS on Ba/F3 cells, Fab supernatant.

The target of assay [5] is T3, cynomolgus monkey transferrin receptor …. The experiment in a line: FACS on Ba/F3 cells, purified Fab.
Assay [6] addresses T4, human transferrin receptor 1 (TfR1), …. The experiment in a line: FACS on Ba/F3 cells, purified Fab.
For assay [7], the target named is T5, recombinant cynomolgus monkey TfR1 extracellular domain, His-tagged (cynomolgus monkey, UniProt Q5RDH6 87-760 (Pongo abelii entry)).
T5 construct: also called Cyno TfR1 ECD; cyno TfR1 ECD-His
The experiment in a line: SPR, TfR1 ECD-His captured, Fab injected, 1:1 fit.

The target of assay [8] is T6, recombinant human TfR1 extracellular domain, His-tagged (human, UniProt P02786 89-760).
T6 construct: also called Human TfR1 ECD; human TfR1 ECD-His
Put plainly: SPR, TfR1 ECD-His captured, Fab injected, 1:1 fit.

Assay [9] deals with T3, cynomolgus monkey transferrin receptor …. The experiment in a line: FACS on Ba/F3 cells, Fab supernatant. The source holds these as a separate data set.
Assay [10] concerns the target T4, human transferrin receptor 1 (TfR1), …. Put plainly: FACS on Ba/F3 cells, Fab supernatant. This is another data set of the same source.
Assay [11] deals with T3, cynomolgus monkey transferrin receptor …. Put plainly: FACS on Ba/F3 cells, Fab supernatant. This is another data set of the same source.
The target in assay [12] is T4, human transferrin receptor 1 (TfR1), …. Put plainly: FACS on Ba/F3 cells, Fab supernatant. The source holds these as a separate data set.
The target in assay [13] is T3, cynomolgus monkey transferrin receptor …. The experiment in a line: FACS on Ba/F3 cells, purified Fab. The source holds these as a separate data set.
Assay [14] deals with T4, human transferrin receptor 1 (TfR1), …. The experiment in a line: FACS on Ba/F3 cells, purified Fab. The source holds these as a separate data set.

Positions count from the first letter of the chain named. Names and notes keep the numbering of the source.

B1: TfR1 ANTIBODY-A HC-H2C hIgG4Fab/LC-L0 hKappa (ΔC214) (Fab, V domains shown)
VH: QSLVESGGGLVQPGGSLRLSCAASGIDFSSSGYMCWVRQAPGKGLEWVGCIYTYSSNTYYAASVKGRFTISKTSSTTVYLQMNSLKTEDTAVYYCARGTYGYTGYTYTMGYFSLWGQGTLVTVSS
VL: DIQMTQSPSTLSASVGDRVTITCQASQNINSYLAWYQQKPGKAPKLLIYRASSLESGVPSRFSGSGSGTEFTLTISSLQPDDFATYYCQSYYYSGSSNYNAFGGGTKVEIKR
notes: also called exemplary antibody (ii)
As to B1, the binding result in [1] was “no binding”.

B2: chimeric ANTIBODY B mAb (RabANTIBODY-B, bivalent huIgG1) (antibody, V domains shown)
VH: QSLEESGGGLVQPEGSLTLTCKASGFSFSNSYWICWVRQAPGKGLEWIGCINTDADSTNYASWARGRFTISKTSSTTVTLQMTSLTAADTASYFCARQNNVFDPGYNLWGPGTLVTVSS
VL: ELVLTQTPASVSEAVGGTVTIKCQASQNIGSNLAWYQQKPGQPPKLLIYDASKLASGVPSRFSGSGSGTEFTLTISDLECADAATYYCQCTVRGGAYGNAFGGGTEVVVK
notes: rabbit variable regions with a human IgG1 framework, bivalent huIgG1; also called rabAB-B
Turning to B2, the binding result in assay [2] was “no binding (tested: 250 nM)”.

B3: chimeric ANTIBODY-A mAb (RabANTIBODY-A, bivalent huIgG1) (antibody, V domains shown)
VH: QSLEESGGGLVQPGASLTLTCKASGIDFSSSGYMCWVRQAPGKGLEWIGCIYTYSSNTYYASWAKGRFTISKTSSTTVTLQMTSLTAADTATYFCARGTYGYTGYTYTMGYFSLWGPGTLVTVSS
VL: ELDMTQTPASVEAAVGGTVTIKCQASQNINSYLAWYQQKPGQPPKLLIYRASTLASGVPSRFKGSGSGTEFTLTISDLECADAATYYCQSYYYSGSSNYNAFGGGTELEIL
notes: rabbit variable regions with a human IgG1 framework, bivalent huIgG1; also called RabAB-A
For B3, the binding result in assay [2] is on record as “no binding (tested: 250 nM)”.

B4: TfRANTIBODY-B HC-H4C/LC-L2 (C90S) hIgG1Fab′(1C) (Fab, V domains shown)
VH: QSLVESGGGVVQPGRSLRLSCKASGFSFSNSYWICWVRQAPGKGLEWVGCINTDADSTNYASWARGRFTISKTSSTTVYLQMNSLRAEDTAVYYCARQNNVFDPGYNLWGPGTLVTVSS
VL: ELVLTQSPSTLSASVGDRVTITCRASQNIGSNLAWYQQKPGKAPKLLIYDASKLESGVPSRFSGSGSGTEFTLTISSLQPDDFATYYCQSTVRGGAYGNAFGGGTKVEIKR
notes: also called ANTIBODY-B H4C/L2(C90S); H4C (C90S)/L2
B4: the EC50 in assay [3] was determined as 3.3 nM; in [4] it was 11.3 nM; in assay [5] it was 1.5 nM; in assay [6], 7.3 nM.

B5: TfR1 ANTIBODY-B HC-H1C hIgG1 Fab′(1C)/LC-L2 hKappa (Fab, V domains shown)
VH: QSLVESGGGVVQPGRSLRLSCAASGFSFSNSYWICWVRQAPGKGLEWVGCINTDADSTNYADSVKGRFTISKDNSKNTVYLQMNSLRAEDTAVYYCARQNNVFDPGYNLWGQGTLVTVSS
VL: B4 VL with S90C
notes: also called ANTIBODY-B H1C/L2; TfRANTIBODY-B HC-H1C/LC-L2 hIgG1Fab′(1C)
Turning to B5, the Kd in assay [7] came to 1.3 nM; in assay [8], 6.7 nM. Besides, the dissociation rate constant (koff) in [7] is 0.000425 s⁻¹; in assay [8], 0.00115 s⁻¹. The values for the kon in assay [7] and in assay [8] were 315000 M⁻¹ s⁻¹ and 171000 M⁻¹ s⁻¹, respectively. Also, the EC50 worked out at 2.8 nM in assay [9]; 10.1 nM in assay [10]; 2.8 nM in assay [11]; 3.8 nM in assay [12]; 2.3 nM in assay [3]; 5.9 nM in assay [4]. Also, the EC50 in assay [13] was 2.3 nM; in assay [14], 8.2 nM.

B6: TfRANTIBODY-B HC-H1C/LC-L2 (C90S) hIgG1Fab′(1C) (Fab, V domains shown)
VH: B5 VH
VL: B4 VL
notes: also called ANTIBODY-B H1C/L2(C90S)
Consider B6, for which the EC50 in assay [3] came to 4.4 nM; in [4] it was 14.9 nM; in assay [5], 3.2 nM; in assay [6], 6.1 nM.

B7: TfRANTIBODY-B HC-H4C/LC-L2 (C90T) hIgG1Fab′(1C) (Fab, V domains shown)
VH: B4 VH
VL: B4 VL with S90T
notes: also called ANTIBODY-B H4C/L2(C90T); H4C (C90T)/L2
Consider B7, for which the EC50 was 2.9 nM in assay [3], 7.7 nM in assay [4], 3.4 nM in [5] and 5.1 nM in assay [6].

B8: TfRANTIBODY-B HC-H1C/LC-L2 (C90T) hIgG1Fab′(1C) (Fab, V domains shown)
VH: B5 VH
VL: B4 VL with S90T
notes: also called ANTIBODY-B H1C/L2(C90T)
As to B8, the EC50 worked out at 5.4 nM in assay [3], 12.6 nM in assay [4], 3.2 nM in assay [5] and 13.6 nM in assay [6].

Source of the values: patent publication US20240158494A1 (Biogen, published 2024).
